{"source": "patent US20090297470", "proteins": {"B1": {"name": "CD26/dipeptidylpeptidase IV (DPP-IV), endogenous enzyme in heart lysates of wild type C57BL/6 mice (protein)", "chain": "MKTPWKVLLGLLGVAALVTIITVPIVLLSKDEAAADSRRTYSLADYLKSTFRVKSYSLWWVSDFEYLYKQENNILLLNAEHGNSSIFLENSTFESFGYHSVSPDRLFVLLEYNYVKQWRHSYTASYNIYDVNKRQLITEEKIPNNTQWITWSPEGHKLAYVWKNDIYVKVEPHLPSHRITSTGEENVIYNGITDWVYEEEVFGAYSALWWSPNNTFLAYAQFNDTGVPLIEYSFYSDESLQYPKTVWIPYPKAGAVNPTVKFFIVNIDSLSSSSSAAPIQIPAPASVARGDHYLCDVVWATEERISLQWLRRIQNYSVMAICDYDKINLTWNCPSEQQHVEMSTTGWVGRFRPAEPHFTSDGSSFYKIISDKDGYKHICHFPKDKKDCTFITKGAWEVISIEALTSDYLYYISNQYKEMPGGRNLYKIQLTDHTNVKCLSCDLNPERCQYYAVSFSKEAKYYQLGCWGPGLPLYTLHRSTDHKELRVLEDNSALDRMLQDVQMPSKKLDFIVLNETRFWYQMILPPHFDKSKKYPLLLDVYAGPCSQKADASFRLNWATYLASTENIIVASFDGRGSGYQGDKIMHAINRRLGTLEVEDQIEAARQFVKMGFVDSKRVAIWGWSYGGYVTSMVLGSGSGVFKCGIAVAPVSRWEYYDSVYTERYMGLPIPEDNLDHYRNSTVMSRAEHFKQVEYLLIHGTADDNVHFQQSAQISKALVDAGVDFQAMWYTDEDHGIASSTAHQHIYSHMSHFLQQCFSLH"}}, "key": {"[1]": {"target": "T1, Diprotin A (Ile-Pro-Ile)", "T1 chain": "IPI"}, "[2]": {"target": "recombinant SDF-1α (1-68), full length, 7.97 kDa"}}, "data": [{"protein": "B1", "values": [{"measurement": "proteolytic DPP-IV activity (H-Gly-Pro-AMC) in myocardium and serum 2 days after MI", "setting": "[1]", "result": "Combined application of G-CSF and Diprotin A in wt mice (\"G-CSF-DipA mice\") lead to a decreased DPP-IV activity after MI only in the myocardium but not in the serum"}, {"measurement": "mass spectrometry of recombinant SDF-1 incubated with heart lysates (cleavage product peak)", "setting": "[2]", "result": "lysates derived from wt animals also showed high abundance of a second peak at 7.748 kDa corresponding to N-terminal cleavage of SDF-1α by DPP-IV"}]}]}
